The values that follow come from US20250222029A1.

The target of the test is HER2 (human epidermal growth factor receptor 2) (human) (UniProt P04626). The test is described as follows: cell-based or functional assay.

“CasMab250 (H/L)-based CAR with medium spacer (IgG4 hinge & CH3 domain) and CD28-CD3ζ1XX intracellular signaling domains” had a maximal cytolysis of SKOV3 tumor cells (xCELLigence, E:T 1:1) of 90%.
